The target of this assay is 2-Cysteine peroxiredoxin (BxPrx) of Bursaphelenchus xylophilus (Bursaphelenchus xylophilus (endogenous in the nematode)). In words: SDS-PAGE and immunoblot of the inter-molecular dimer; nematodes incubated in 0, 1 and 5 mM H2O2 for 5 min, harvested in 20% TCA, resuspended in SDS-PAGE loading buffer, 12% SDS-PAGE, Western blot with anti-BxPrx serum; 80 ug protein extract per lane. On the technique in general: Immunoblotting shows a protein as a band on a membrane.

Consider one substance from publication PMC4895224.

In general, stoichiometry N refers to the number of molecules, sites or subunits per partner or assembly.

The substance “2-Cysteine peroxiredoxin (BxPrx) of Bursaphelenchus xylophilus (natural protein)” came in with a stoichiometry N of 2.
